Measurements reported in patent publication US20240165208A1, “Mutant KRAS-Targeting Peptide and Use Thereof” (GJMEDI INC., priority 2020, published 2024).
No end group written: not given here.

Tests used:
[1] = system: AsPC-1 cells; type: cell-based; details: 48 h
Description: Through 3-(4,5-dimethylthiazol-2-yl)-2,5-diphenyltetrazolium bromide (MTT) analysis, an effect of the anticancer peptide GJ101 on the cell viability of cancer cells was examined. For the cell viability analysis, AsPC-1 cells as a pancreatic cancer cell line were used. The pancreatic cancer cell line was prepared by dispensing the pancreatic cancer cell line at 1×10^3 cells/well (100 μL) and adhering thereto. To treat the anticancer peptide GJ101, the medium of the cells was replaced with a new medium (RPMI-1640). The pancreatic cancer cell lines with different adhering times were treated with the anticancer peptide GJ101 while increasing a concentration gradient, respectively. The pancreatic cancer cells treated with the anticancer peptide GJ101 were incubated for 24 or 48 hours, respectively. Each incubated pancreatic cancer cell was added with an MTT solution (5 mg/mL) and incubated for 90 minutes. After the end of the incubation, an optical density (OD) of pancreatic cancer cells was measured at 540 nm using a microplate reader (Molecular Devices, USA), and a maximum concentration (GI50) at which the growth of pancreatic cancer cells was reduced by half was confirmed. The result of examining the effect of the anticancer peptide GJ101 on the cell viability of tumor cells was illustrated in FIG. 5.

[2] = body weight and general condition in cancer animal model; type: in vivo; details: GJ101 25 mg/kg or 50 mg/kg
Description: To prepare a cancer animal model, AsPC-1 cells as a pancreatic cancer cell line were prepared by dissociation in a Hanks' balanced salt solution (HBSS) and a materigel. The prepared AsPC-1 cells were transplanted into the right flank of a nude mouse at an amount of 2×10^6 cells/10 μL/animal to prepare a cancer animal model.
For an experiments to be described later, the anticancer peptide GJ101 was administered at a concentration of 25 mg/kg or 50 mg/kg from day 16 after the preparation of the cancer animal model. In addition, a control group (Vehicle) was treated with 10% DMSO, 40% PEG400, and 50% DW.
A drug was administered to a cancer animal model, and then the body weight of the individual was measured once a day, and the result were illustrated in FIG. 6.

[3] = target: T1, KRAS G12V protein (UniProt P01116-2 1-188, limits assumed); assay: ITC, GJ101 (1.0 mM) injected into KRAS G12V (0.1 mM), 25 °C
T1 construct: also called mutant KRAS G12V; mutant Kirsten-RAS
Description: (§1) In order to examine the affinity of the anticancer peptide GJ101 to the KRAS G12V protein, isothermal titration heat was measured using isothermal titration calorimetry (ITC). Specifically, the KRAS G12V protein was prepared by dialysis with a buffer [20 mM Tris-HCl (pH 7.4), 100 mM NaCl, and 2 mM MgCl₂] so that the final concentration of the KRAS G12V protein was 0.1 mM. Next, the anticancer peptide GJ101 was prepared by diluting the anticancer peptide GJ101 to a concentration of 1.0 mM using the same buffer as described above. Isothermal titration heat measurement was performed by injecting the prepared KRAS G12V protein and anticancer peptide GJ101 into isothermal titration calorimetry. In the isothermal titration heat measurement, the anticancer peptide GJ101 was injected 20 times at 25° C. while stirring at a rate of 1,000 rpm. ΔS was calculated from a standard thermodynamic equation using the calculated K and ΔH values. The results of isothermal titration calorimetry were illustrated in FIG. 3.

[4] = target: T1, KRAS G12V protein; assay: ITC, calculated from K and ΔH
Description: as §1

## LYDVA [GJ101]
[1]
  GI50: 16 µM
[2]
  moribund state or behavioral abnormalities: not observed

B1: anticancer peptide GJ101 (peptide)
peptide: LYDVA
notes: Synthesised by solid phase peptide synthesis and purified by RP-HPLC to 95% or more; said to consist of 5 amino acids and to be derived from H-REV107; also called mutant KRAS-targeting anticancer peptide
[3]
  Ka: 86500 M⁻¹
  Kd: 12 µM
  ΔH: -0.994 kcal/mol
[4]
  ΔS: 19.3 cal/mol/deg
